Assay results published in article PMC13170675, “A Wnt-induced conformational phospho-switch in DVL3 controls association with Frizzled receptors and Wnt/β-catenin signaling” (Science Advances, 2026).

Target: the molecule itself
Test: native MS; native ESI-MS, 200 mM ammonium acetate buffer (pH 7.4); monomeric species are the main ones, homodimeric species detected

Protein	binding result
hDVL3 PDZ-IDR2-DEP (amino acids 243 to 496), nonphosphorylated (domain or fragment, human, UniProt Q92997 243-496, looked up, human Dishevelled 3 (DVL3), PDZ domain, IDR2 and DEP domain, amino acids 243 to 496; source: E. coli BL21 (DE3), purified (Ni-NTA, TEV cleavage, second Ni-NTA, anion exchange, SEC); not shown: His6, N-terminal, cleaved) MSLNIITVTLNMEKYNFLGISIVGQSNERGDGGIYIGSIMKGGAVAADGRIEPGDMLLQVNEINFENMSNDDAVRVLREIVHKPGPITLTVAKCWDPSPRGCFTLPRSEPIRPIDPAAWVSHTAAMTGTFPAYGMSPSLSTITSTSSSITSSIPDTERLDDFHLSIHSDMAAIVKAMASPESGLEVRDRMWLKITIPNAFIGSDVVDWLYHNVEGFTDRREARKYASNLLKAGFIRHTVNKITFSEQCYYIFGD	binds
phosphorylated hDVL3 PDZ-IDR2-DEP (amino acids 243 to 496) (domain or fragment, human, UniProt Q92997 243-496, looked up, 8 to 19 phosphates present (native ESI-MS), on S/T residues of IDR2, by CK1ε, human Dishevelled 3 (DVL3), PDZ domain, phosphorylated IDR2 and DEP domain, amino acids 243 to 496; also called PDZ-pIDR2-DEP; source: E. coli BL21 (DE3), purified; phosphorylated by CK1ε; not shown: His6, N-terminal, cleaved) MSLNIITVTLNMEKYNFLGISIVGQSNERGDGGIYIGSIMKGGAVAADGRIEPGDMLLQVNEINFENMSNDDAVRVLREIVHKPGPITLTVAKCWDPSPRGCFTLPRSEPIRPIDPAAWVSHTAAMTGTFPAYGMSPSLSTITSTSSSITSSIPDTERLDDFHLSIHSDMAAIVKAMASPESGLEVRDRMWLKITIPNAFIGSDVVDWLYHNVEGFTDRREARKYASNLLKAGFIRHTVNKITFSEQCYYIFGD	binds
